Reference: patent publication US20230140868A1, “COMPOSITIONS AND METHODS FOR TREATING CANCER” (Alpha Beta Holdings, LLC, priority 2020, published 2023)

Experiments:
[1] = system: tumor cells; test: In vitro ADCC with mouse bone marrow derived macrophages (LM609); assay type: cell-based; conditions: effector: BMDM isolated from healthy mice
Description: Mouse bone marrow-derived macrophages (BMDMs) were aseptically harvested from euthanized 8-10 week-old female C57BL/6 mice by flushing leg bones with RPMI, filtering through 70 μm cell strainers, and incubating in Red Blood Cell Lysing Buffer Hybri-Max™ (Sigma, R7757). Cells were incubated with mouse M-CSF (Peprotech, 315-02) for 7 days before ADCC assays.
We used the isolated macrophages as effector cells in an antibody-dependent cellular-cytotoxicity (ADCC) assay. […] The ratio of dead target cells (PI-positive) to the total target cell population (CFSE-positive) was calculated as described (Bracher, 2007).

[2] = target: T1, integrin αvβ3 (Mus musculus, UniProt O54890+P43406); conditions: mouse cells; Cheresh, 1987; cited from earlier work
T1 sequence (P43406 31-885 limits assumed): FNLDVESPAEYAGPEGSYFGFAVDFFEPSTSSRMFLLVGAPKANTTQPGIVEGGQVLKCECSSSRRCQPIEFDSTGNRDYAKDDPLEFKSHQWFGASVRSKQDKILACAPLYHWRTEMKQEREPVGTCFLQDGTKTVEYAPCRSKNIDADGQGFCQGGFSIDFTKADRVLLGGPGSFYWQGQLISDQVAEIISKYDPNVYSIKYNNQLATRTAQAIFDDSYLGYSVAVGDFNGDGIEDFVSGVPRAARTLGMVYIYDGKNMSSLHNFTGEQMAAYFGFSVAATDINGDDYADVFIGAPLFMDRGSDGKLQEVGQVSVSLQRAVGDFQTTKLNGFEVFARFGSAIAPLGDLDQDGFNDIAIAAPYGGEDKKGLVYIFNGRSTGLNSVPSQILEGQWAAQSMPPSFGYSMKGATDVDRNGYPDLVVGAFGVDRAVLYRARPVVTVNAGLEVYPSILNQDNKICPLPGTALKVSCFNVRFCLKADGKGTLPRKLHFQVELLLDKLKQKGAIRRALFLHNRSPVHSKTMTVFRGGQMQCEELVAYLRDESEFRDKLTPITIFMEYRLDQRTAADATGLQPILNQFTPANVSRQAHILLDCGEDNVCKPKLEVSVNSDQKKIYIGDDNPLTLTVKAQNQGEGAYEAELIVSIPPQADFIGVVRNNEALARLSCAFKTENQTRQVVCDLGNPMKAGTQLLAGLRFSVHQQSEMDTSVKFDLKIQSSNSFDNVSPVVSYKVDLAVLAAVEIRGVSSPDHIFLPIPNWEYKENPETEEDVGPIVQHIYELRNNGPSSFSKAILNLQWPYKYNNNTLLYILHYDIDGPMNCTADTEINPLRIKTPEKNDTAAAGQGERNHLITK
T1 sequence (P43406 887-1044 limits assumed): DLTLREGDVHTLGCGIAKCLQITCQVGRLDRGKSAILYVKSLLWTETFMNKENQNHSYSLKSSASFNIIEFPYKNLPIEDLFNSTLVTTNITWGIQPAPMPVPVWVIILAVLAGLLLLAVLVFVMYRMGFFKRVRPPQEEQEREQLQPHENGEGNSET
T1 sequence (O54890 26-787): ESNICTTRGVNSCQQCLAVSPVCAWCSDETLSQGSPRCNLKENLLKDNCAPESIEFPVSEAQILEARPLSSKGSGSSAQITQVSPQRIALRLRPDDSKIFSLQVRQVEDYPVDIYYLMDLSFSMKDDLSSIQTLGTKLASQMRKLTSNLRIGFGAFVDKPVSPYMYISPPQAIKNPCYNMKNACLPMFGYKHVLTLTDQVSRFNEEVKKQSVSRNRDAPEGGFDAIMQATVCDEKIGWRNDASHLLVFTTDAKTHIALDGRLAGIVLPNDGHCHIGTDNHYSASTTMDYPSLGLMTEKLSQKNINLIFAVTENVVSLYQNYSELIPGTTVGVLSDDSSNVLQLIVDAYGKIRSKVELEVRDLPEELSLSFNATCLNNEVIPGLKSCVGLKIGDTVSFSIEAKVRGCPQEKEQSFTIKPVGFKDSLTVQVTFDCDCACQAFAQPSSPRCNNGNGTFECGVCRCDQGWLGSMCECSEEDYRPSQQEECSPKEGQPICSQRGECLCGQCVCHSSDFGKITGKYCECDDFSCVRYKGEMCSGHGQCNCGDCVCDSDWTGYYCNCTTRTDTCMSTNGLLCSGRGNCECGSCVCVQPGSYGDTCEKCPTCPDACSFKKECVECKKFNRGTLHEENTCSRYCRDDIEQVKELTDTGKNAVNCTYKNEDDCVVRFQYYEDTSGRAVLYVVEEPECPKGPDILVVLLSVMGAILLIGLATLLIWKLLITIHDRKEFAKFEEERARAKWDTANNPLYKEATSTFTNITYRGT

[3] = system: HCC827-R18 erlotinib-resistant tumor cells; test: Re-sensitization of erlotinib-resistant HCC827-R18 xenografts (FIG. 1); assay type: in vivo, nu/nu mice; conditions: LM609 i.p., 10 mg/kg, twice/week with erlotinib 6.25 mg/kg vs erlotinib alone
Description: HCC827-R18 and PC9-R4L erlotinib-resistant tumor cells generated as reported in Wettersten et al., Cancer Res. 79:5048 (2019), incorporated by reference herein in its entirety, were injected to form subcutaneous flank tumors in nu/nu recipient mice. […] Tumor dimensions were measured biweekly and volume calculated as […].
To generate erlotinib-resistant tumors […], HCC827 or PC9 human lung cancer cells (5×10^6 tumor cells in 100 μl of PBS) were subcutaneously injected to the right flank of female nu/nu mice (Charles River, 088, 8-10 weeks old) and tumors were measured with calipers twice per week. Animals with a tumor volume of 100-200 mm^3 were randomly assigned into groups treated with combinations of Captisol (oral, six times/week) or erlotinib (oral, 6.25 mg/kg, six times/week). For each of the individual tumors shown in Figure S3 of Wettersten et al., Cancer Res. 79:5048 (2019)}, vehicle-treated erlotinib sensitive (HCC827-P and PC9-P) and erlotinib-resistant (HCC827-R18 and PC9-R4L) cells were isolated. A gain of αvβ3 expression on the cell surface of the erlotinib-resistant tumor cells was confirmed by flow cytometry.

[4] = system: αvβ3-expressing human lung xenograft tumors; test: αvβ3-expressing human lung xenograft with or without macrophage depletion; assay type: in vivo, nude mice
Source text: Successful depletion of macrophages by clodronate treatment was confirmed by staining tumor sections for the mouse macrophage marker F4/80.

B1: LM609: mouse monoclonal IgG1K antibody that recognizes human integrin αvβ3; SEQ ID NO:11 and 12 (antibody)
heavy: MNFGLRLIFLVLTLKGVKCEVQLVESGGGLVKPGGSLKLSCAASGFAFSSYDMSWVRQIPEKRLEWVAKVSSGGGSTYYLDTVQGRFTISRDNAKNTLYLQMSSLNSEDTAMYYCARHNYGSFAYWGQGTLVTVSAAKTTPPSVYPLAPGSAAQTNSMVTLGCLVKGYFPEPVTVTWNSGSLSSGVHTFPAVLQSDLYTLSSSVTVPSSTWPSETVTCNVAHPASSTKVDKKIVPRDCGCKPCICTVPEVSSVFIFPPKPKDVLTITLTPKVTCVVVDISKDDPEVQFSWFVDDVEVHTAQTQPREEQFNSTFRSVSELPIMHQDWLNGKEFKCRVNSAAFPAPIEKTISKTKGRPKAPQVYTIPPPKEQMAKDKVSLTCMITDFFPEDITVEWQWNGQPAENYKNTQPIMDTDGSYFVYSKLNVQKSNWEAGNTFTCSVLHEGLHNHHTEKSLSHSPGK
light: MVFTPQILGLMLFWISASRGDIVLTQSPATLSVTPGDSVSLSCRASQSISNHLHWYQQKSHESPRLLIKYASQSISGIPSRFSGSGSGTDFTLSINSVETEDFGMYFCQQSNSWPHTFGGGTKLEIKRADAAPTVSIFPPSSEQLTSGGASVVCFLNNFYPKDINVKWKIDGSERQNGVLNSWTDQDSKDSTYSMSSTLTLTKDEYERHNSYTCEATHKTSTSPIVKSFNRNEC
modifications: mAb LM609-mIgG1-kappa Heavy chain; mAb LM609-mIgG1-kappa Light chain
In the case of B1, the “ADCC (tumor cell killing)” value [1] is listed as “could also kill tumor cells”, the “recognition of integrin αvβ3” value [2] is listed as “not mouse cells” and the “re-sensitization of resistant tumors to erlotinib (tumor volume)” value [3] is listed as “able to re-sensitize resistant tumors to the growth inhibitory effects of erlotinib”. The “anti-tumor effect after macrophage depletion” value ([4]; macrophage depletion using clodronate liposomes) was “completely blocked” and the “sensitivity of xenograft tumors to LM609” value ([4]; reported in FIG. 2A of Wettersten et al.) was “highly sensitive”.
